The source of these data is article PMC11283288 (Nature, 2024).

The data set concerns the molecule itself. In words: cryo-EM structure.

B1: Full-length GSDMD(D275A), C-terminal Flag, palmitoylated (natural protein, human, UniProt P57764 1-484, looked up)
chain: MGSAFERVVRRVVQELDHGGEFIPVTSLQSSTGFQPYCLVVRKPSSSWFWKPRYKCVNLSIKDILEPDAAEPDVQRGRSFHFYDAMDGQIQGSVELAAPGQAKIAGGAAVSDSSSTSMNVYSLSVDPNTWQTLLHERHLRQPEHKVLQQLRSRGDNVYVVTEVLQTQKEVEVTRTHKREGSGRFSLPGATCLQGEGQGHLSQKKTVTIPSGSTLAFRVAQLVIDSDLDVLLFPDKKQRTFQPPATGHKRSTSEGAWPQLPSGLSMMRCLHNFLTAGVPAEGAFTEDFQGLRAEVETISKELELLDRELCQLLLEGLEGVLRDQLALRALEEALEQGQSLGPVEPLDGPAGAVLECLVLSSGMLVPELAIPVVYLLGALTMLSETQHKLLAEALESQTLLGPLELVGSLLEQSAPWQERSTMSLPPGLLGNSWGEGAPAWVLLDECGLELGEDTPHVCWEPQAQGRMCALYASLALLSGLSQEPH
modifications: S-palmitoylation at Cys191
As to B1, the “stoichiometry N” value came to 33.
